In the experiment the target is early pandemic (Wuhan) SARS-CoV-2 RBD (SARS-CoV-2, UniProt P0DTC2). Kind of experiment: crystal structure. As to conditions: both partners purified.

B1: mAb 58 Fab (Fab, V domains shown)
VH: QVQLVESGGGLVQPGRSLRLSCAASGFTFDDYAMHWVRQPPGKGLEWVSGVSWNSGTIGYADSVKGRFIISRDNAKNSLYLQMNSLKAEDTALYYCAREVGGTFGVLISREGGLDYWGQGTLVTVSS
VL: SYELTQPPSVSVAPGQTARITCGGNTIGSKSVHWYQQRPGQAPVLVVYDDSDRPSGIPERFSGSNSGNTATLTISRVEAGDEADYYCQVWDSSSDRVVFGGGTKLTVL
As to B1, the binding result is “binds”.

B2: mAb 158 Fab (Fab, V domains shown)
VH: EVQLLESGGDLIQPGGSLRLSCAASGVTVSSNYMSWVRQAPGKGLEWVSIIYPGGSTFYADSVKGRFTISRDNSKNTLYLQMHSLRAEDTAVYYCARDLGSGDMDVWGKGTTVTVSS
VL: DIVMTQSPSFLSASVGDRVTITCRASQGISSYLAWYQQKPGKAPKLLIQAASTLQSGVPSRFSGSGSGTEFTLTISSLQPEDFATYYCQQLNSYRYTFGQGTKVEIK
On to B2, for which the binding result is “binds”.

These data come from paper doi:10.1101/2021.12.03.471045 (bioRxiv, 2021).
